Data: IntAct's records for PubMed 20385816

Molecular target: slac1_arath SLAC1 (UniProt Q9LD83)
Sequence (Q9LD83 whole entry): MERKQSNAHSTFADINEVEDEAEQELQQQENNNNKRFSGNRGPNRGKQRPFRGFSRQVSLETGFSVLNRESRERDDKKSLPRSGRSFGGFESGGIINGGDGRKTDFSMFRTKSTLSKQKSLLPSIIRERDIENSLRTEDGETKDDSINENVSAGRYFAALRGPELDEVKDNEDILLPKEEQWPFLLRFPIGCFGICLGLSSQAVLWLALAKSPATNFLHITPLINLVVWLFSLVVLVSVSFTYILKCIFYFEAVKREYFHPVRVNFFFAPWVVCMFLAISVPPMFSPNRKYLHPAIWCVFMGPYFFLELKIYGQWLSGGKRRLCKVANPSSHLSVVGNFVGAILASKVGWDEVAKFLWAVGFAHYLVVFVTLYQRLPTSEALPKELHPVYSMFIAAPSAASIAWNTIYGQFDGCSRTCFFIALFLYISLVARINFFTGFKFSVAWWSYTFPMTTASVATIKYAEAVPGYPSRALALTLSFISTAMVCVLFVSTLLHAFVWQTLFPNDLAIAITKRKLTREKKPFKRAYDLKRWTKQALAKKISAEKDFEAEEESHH

Calcium-dependent protein kinase 23 (Arabidopsis thaliana (Mouse-ear cress)), Q9M101 D193A, sequence (Q9M101 whole entry D193A): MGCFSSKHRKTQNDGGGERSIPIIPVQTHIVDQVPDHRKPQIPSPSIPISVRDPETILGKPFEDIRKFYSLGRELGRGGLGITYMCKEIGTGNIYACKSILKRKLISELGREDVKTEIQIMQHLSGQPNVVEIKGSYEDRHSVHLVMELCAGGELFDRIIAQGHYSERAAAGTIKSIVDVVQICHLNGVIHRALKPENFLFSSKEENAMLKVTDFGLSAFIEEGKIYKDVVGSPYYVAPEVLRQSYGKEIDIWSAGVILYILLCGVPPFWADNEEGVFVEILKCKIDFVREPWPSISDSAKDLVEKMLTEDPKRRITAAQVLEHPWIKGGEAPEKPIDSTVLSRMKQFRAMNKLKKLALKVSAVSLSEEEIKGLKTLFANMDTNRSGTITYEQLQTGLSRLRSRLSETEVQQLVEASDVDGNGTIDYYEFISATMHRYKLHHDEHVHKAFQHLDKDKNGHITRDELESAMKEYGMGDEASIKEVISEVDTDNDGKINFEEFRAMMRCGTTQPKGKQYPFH

With “Calcium-dependent protein kinase 23 (Arabidopsis thaliana (Mouse-ear cress)), Q9M101 D193A” the “effect of a mutation on the interaction” value was “disrupting interaction”.
